Data as given in patent publication US20140087995A1 (published 2014).
Numbered stars: 1 amine (or outer) side, 2 acyl side, 3 side chain; on linkers, the order of the positions; unused ones are H or OH. Bridge positions count the residues as written; N and C are the ends. Side chains are listed from the residue outwards. Ends that are not written are not given here. * marks the point of attachment. C20 diacid = O=C(O)CCCCCCCCCCCCCCCCCCC(=O)*; γGlu = O=C(O)[C@H](CCC(=O)[*:2])N[*:1]

T1: human calcitonin receptor (human, UniProt P30988 25-474)
T1 construct: whole, on cells; Membranes in a scintillation proximity assay (Assay VII); also called hCTR; hCT
T1 sequence (looked up): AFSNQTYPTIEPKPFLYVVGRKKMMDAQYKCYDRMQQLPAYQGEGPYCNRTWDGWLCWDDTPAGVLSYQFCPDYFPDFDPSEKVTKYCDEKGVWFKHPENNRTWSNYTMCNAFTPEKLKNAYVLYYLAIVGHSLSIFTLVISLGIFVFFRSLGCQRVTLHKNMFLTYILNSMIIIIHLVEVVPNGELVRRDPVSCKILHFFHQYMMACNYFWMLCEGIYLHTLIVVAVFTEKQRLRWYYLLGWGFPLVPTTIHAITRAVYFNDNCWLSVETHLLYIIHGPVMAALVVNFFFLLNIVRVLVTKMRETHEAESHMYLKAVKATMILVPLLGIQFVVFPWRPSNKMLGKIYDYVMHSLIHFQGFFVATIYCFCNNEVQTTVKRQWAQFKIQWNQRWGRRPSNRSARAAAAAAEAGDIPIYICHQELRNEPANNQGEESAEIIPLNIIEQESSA

T2: human amylin receptor (amylin 3(a) receptor: human calcitonin receptor with RAMP-3) (human, UniProt P30988 25-474; O60896 24-148)
T2 sequence (looked up) 1: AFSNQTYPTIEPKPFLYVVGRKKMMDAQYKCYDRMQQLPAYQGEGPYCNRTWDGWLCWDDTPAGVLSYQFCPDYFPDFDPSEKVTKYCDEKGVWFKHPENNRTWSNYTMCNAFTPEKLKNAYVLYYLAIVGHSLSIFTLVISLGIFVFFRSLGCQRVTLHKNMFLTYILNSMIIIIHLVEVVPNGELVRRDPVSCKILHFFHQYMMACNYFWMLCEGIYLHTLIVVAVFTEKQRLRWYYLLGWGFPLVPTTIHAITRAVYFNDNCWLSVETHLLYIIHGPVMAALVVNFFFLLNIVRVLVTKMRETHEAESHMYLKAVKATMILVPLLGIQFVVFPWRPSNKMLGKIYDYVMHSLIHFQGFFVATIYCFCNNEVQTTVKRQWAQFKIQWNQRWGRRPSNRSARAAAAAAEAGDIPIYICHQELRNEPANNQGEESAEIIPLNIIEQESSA
T2 sequence (looked up) 2: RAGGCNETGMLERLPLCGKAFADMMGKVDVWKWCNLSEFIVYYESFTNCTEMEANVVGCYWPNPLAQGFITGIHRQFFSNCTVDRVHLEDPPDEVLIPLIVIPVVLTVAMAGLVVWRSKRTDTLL

T3: human calcitonin receptor (human, UniProt P30988 25-474)
T3 sequence (looked up): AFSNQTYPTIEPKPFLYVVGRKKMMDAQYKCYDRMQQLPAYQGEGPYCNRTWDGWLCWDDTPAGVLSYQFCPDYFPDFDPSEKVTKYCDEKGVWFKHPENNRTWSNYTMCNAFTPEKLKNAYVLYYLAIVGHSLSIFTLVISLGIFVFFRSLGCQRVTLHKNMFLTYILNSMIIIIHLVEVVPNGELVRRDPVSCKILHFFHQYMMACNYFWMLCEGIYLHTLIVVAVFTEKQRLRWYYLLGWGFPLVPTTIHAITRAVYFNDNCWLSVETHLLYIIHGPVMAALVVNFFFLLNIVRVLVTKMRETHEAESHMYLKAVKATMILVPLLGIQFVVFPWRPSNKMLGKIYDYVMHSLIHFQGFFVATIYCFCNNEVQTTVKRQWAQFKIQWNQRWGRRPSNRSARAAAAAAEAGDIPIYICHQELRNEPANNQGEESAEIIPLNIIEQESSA


Experiments:
[1] = target: T1, human calcitonin receptor; assay: ratio of IC50 at human calcitonin receptor to IC50 at human amylin receptor (reference), SPA binding assays
Experimental: The resulting pellet was resuspended, homogenized and centrifuged (20.000 rpm, 15 min) in a buffer containing 20 mM Na-HEPES and 0.1 mM EDTA (pH 7.4, buffer 2). The resulting pellet was resuspended in buffer 2 and protein concentration was measured (BCA protein Assay, Pierce). The homogenate was kept cold during the whole procedure. The membranes were kept at −80° C. until use. The assay was performed in a 384 well Optiplate (PerkinElmer) in a total volume of 40 ul. Membranes were mixed with SPA beads. Final concentration of membranes 35 ng/μL final and SPA beads was 0.05 mg/well. Test-compounds were dissolved in DMSO and further diluted in assay buffer (50 mM Hepes, pH 7.4, 1 mM CaCl2, 5 mM MgCl₂, 0.1% OA and 0.02% Tween20). […] The final mixture was incubated with shaking at 400 rpm for 120 min at 25° C. prior to centrifugation (1500 rpm, 10 min). Samples were analyzed on TopCounter™ (Packard). The IC₅₀ was calculated using (one site binding competition analysis) GraphPad Prism5 as a measure of receptor affinity.
Membranes were prepared in the following way; the cells were rinsed with PBS and incubated with Versene for approximately 5 min before harvesting. The cells were flushed with PBS and the cell-suspension was centrifuged for 5 min at 1000 rpm. Cells were homogenized (Ultrathurrax) in a buffer containing 20 mM Na-HEPES and 10 mM EDTA (pH 7.4) and centrifuged at 20.000 rpm for 15 min. The resulting pellet was resuspended, homogenized and centrifuged (20.000 rpm, 15 min) in a buffer containing 20 mM Na-HEPES and 0.1 mM EDTA (pH 7.4, buffer 2). The resulting pellet was resuspended in buffer 2 and protein concentration was measured (BCA protein Assay, Pierce). The homogenate was kept cold during the whole procedure. The membranes were kept at −80° C. until use. Assay was performed in a 384 well Optiplate (PerkinElmer) in a total volume of 40 ul. Membranes were mixed with SPA beads.

[2] = target: T1, human calcitonin receptor; assay: SPA competition binding, displacement of 125I-calcitonin from membranes with human calcitonin receptor (Assay VII)
Experimental: Membranes were prepared in the following way; the cells were rinsed with PBS and incubated with Versene for approximately 5 min before harvesting. The cells were flushed with PBS and the cell-suspension was centrifuged for 5 min at 1000 rpm. Cells were homogenized (Ultrathurrax) in a buffer containing 20 mM Na-HEPES and 10 mM EDTA (pH 7.4) and centrifuged at 20.000 rpm for 15 min. The resulting pellet was resuspended, homogenized and centrifuged (20.000 rpm, 15 min) in a buffer containing 20 mM Na-HEPES and 0.1 mM EDTA (pH 7.4, buffer 2). The resulting pellet was resuspended in buffer 2 and protein concentration was measured (BCA protein Assay, Pierce). The homogenate was kept cold during the whole procedure. The membranes were kept at −80° C. until use. Assay was performed in a 384 well Optiplate (PerkinElmer) in a total volume of 40 ul. Membranes were mixed with SPA beads. Final concentration of membranes 35 ng/μL final and Final concentration of SPA beads was 0.05 mg/well. Test-compounds were dissolved in DMSO and further diluted in assay buffer (50 mM Hepes, pH 7.4, 1 mM CaCl2, 5 mM MgCl₂, 0.1% OA and 0.02% Tween20). […] The final mixture was incubated for 120 min with shaking at 400 rpm at 25° C. prior to centrifugation (1500 rpm, 10 min). Samples were analyzed on TopCounter™ (Packard). The […] was calculated using (one site binding competition analysis) GraphPad Prism5 as a measure of receptor affinity.

[3] = target: T2, human amylin receptor (amylin 3(a) …); assay: cell-based or functional assay
[4] = target: T3, human calcitonin receptor; assay: cell-based or functional assay
[5] = target: T2, human amylin receptor (amylin 3(a) …); assay: SPA competition, displacement of 125I-rat amylin from membranes of BHK cells with the human amylin 3(a) receptor
Experimental: The binding assay was performed using scintillation proximity assay (SPA) beads (RPNQ0001) from PerkinElmer and cell membranes from the Amylin 3(a)/CRE-luc cells (as described in Assay (II)) were used. Membranes were prepared in the following way; the cells were rinsed with PBS and incubated with Versene for approximately 5 min before harvesting. The cells were flushed with PBS and the cell-suspension was centrifuged for 5 min at 1000 rpm. Cells were homogenized (ultrathurrax) in a buffer containing 20 mM Na-HEPES and 10 mM EDTA (pH 7.4) and centrifuged at 20.000 rpm for 15 min. The resulting pellet was resuspended, homogenized and centrifuged (20.000 rpm, 15 min) in a buffer containing 20 mM Na-HEPES and 0.1 mM EDTA (pH 7.4, buffer 2). The resulting pellet was resuspended in buffer 2 and protein concentration was measured (BCA protein Assay, Pierce). The homogenate was kept cold during the whole procedure. The membranes were kept at −80° C. until use. The assay was performed in a 384 well Optiplate (PerkinElmer) in a total volume of 40 ul. Membranes were mixed with SPA beads. Final concentration of membranes 35 ng/μL final and SPA beads was 0.05 mg/well. Test-compounds were dissolved in DMSO and further diluted in assay buffer (50 mM Hepes, pH 7.4, 1 mM CaCl2, 5 mM MgCl₂, 0.1% OA and 0.02% Tween20). […] The final mixture was incubated with shaking at 400 rpm for 120 min at 25° C. prior to centrifugation (1500 rpm, 10 min). Samples were analyzed on TopCounter™ (Packard). The IC₅₀ was calculated using (one site binding competition analysis) GraphPad Prism5 as a measure of receptor affinity.

Row | Ratio hCT/hAmylin binding [1] | IC50 [2] [nM] | hAmylin-R funct. EC50 [3] [nM] | Ratio hCT/hAmylin funct. [4] | hCTR funct. EC50 [4] [nM] | IC50 [5] [nM] | Binder
1 | 151 | 42.5 |  |  |  |  | K([γGlu-C20 diacid])CNTATCATQRLADFLRHSSPNFGAIPSSTNVGPRTY-NH2 (disulfide 2-7 (inferred))
2 | 18 | 2.73 |  |  |  |  | K([γGlu-γGlu-C20 diacid])CNTATCATQRLAEFLRHSSPNFGAIPSSTNVGPNTF-NH2 (disulfide 2-7 (inferred))
3 | 16.7 | 3.27 |  |  |  |  | K([γGlu-C20 diacid])CNTATCATQRLADFLRHSSPNFGAIPSSTNVGPETY-NH2 (disulfide 2-7 (inferred))
4 | 26.4 | 26.1 |  |  |  |  | K([γGlu-C20 diacid])CNTATCATQRLAEFLRHSSPNFGAIPSSTNVGSHTY-NH2 (disulfide 2-7 (inferred))
5 | 27.3 | 10.3 |  |  |  |  | K([γGlu-γGlu-C20 diacid])CNTATCATQRLAEFLRHSSPNFGAIPSSTNVGPHTY-NH2 (disulfide 2-7 (inferred))
6 | 280 | 127 |  |  |  |  | K([γGlu-γGlu-C20 diacid])CNTATCATQRLADFLRHSSPNFGAIPSSTNVGPRTY-NH2 (disulfide 2-7 (inferred), also called compound 130)
7 |  |  | 0.224 | 12 | 2.7 | 1.18 | K([γGlu-γGlu-C20 diacid])CNTATCATQRLADFLRHSSPNFGAPLSSTNVGSDTY-NH2 (disulfide 2-7; N-terminus assumed; SMILES CC(C)C[C@H](NC(=O)[C@H](CCCNC(=N)N)NC(=O)[C@H](CCC(N)=O)NC(=O)[C@@H](NC(=O)[C@H](C)NC(=O)[C@@H]1CSSC[C@H](NC(=O)[C@@H](N)CCCCNC(=O)CC[C@H](NC(=O)CC[C@H](NC(=O)CCCCCCCCCCCCCCCCCCC(=O)O)C(=O)O)C(=O)O)C(=O)N[C@@H](CC(N)=O)C(=O)N[C@@H]([C@@H](C)O)C(=O)N[C@@H](C)C(=O)N[C@@H]([C@@H](C)O)C(=O)N1)[C@@H](C)O)C(=O)N[C@@H](C)C(=O)N[C@@H](CC(=O)O)C(=O)N[C@@H](Cc1ccccc1)C(=O)N[C@@H](CC(C)C)C(=O)N[C@@H](CCCNC(=N)N)C(=O)N[C@@H](Cc1c[nH]cn1)C(=O)N[C@@H](CO)C(=O)N[C@@H](CO)C(=O)N1CCC[C@H]1C(=O)N[C@@H](CC(N)=O)C(=O)N[C@@H](Cc1ccccc1)C(=O)NCC(=O)N[C@@H](C)C(=O)N1CCC[C@H]1C(=O)N[C@@H](CC(C)C)C(=O)N[C@@H](CO)C(=O)N[C@@H](CO)C(=O)N[C@H](C(=O)N[C@@H](CC(N)=O)C(=O)N[C@H](C(=O)NCC(=O)N[C@@H](CO)C(=O)N[C@@H](CC(=O)O)C(=O)N[C@H](C(=O)N[C@@H](Cc1ccc(O)cc1)C(N)=O)[C@@H](C)O)C(C)C)[C@@H](C)O, also called compound 1)
8 |  |  | 0.205 | 6.7 | 1.38 | 1.13 | K([γGlu-γGlu-C20 diacid])CNTATCATQRLADFLRHSSNPFGAPLSSTNVGSDTY-NH2 (disulfide 2-7; N-terminus assumed; SMILES CC(C)C[C@H](NC(=O)[C@H](CCCNC(=N)N)NC(=O)[C@H](CCC(N)=O)NC(=O)[C@@H](NC(=O)[C@H](C)NC(=O)[C@@H]1CSSC[C@H](NC(=O)[C@@H](N)CCCCNC(=O)CC[C@H](NC(=O)CC[C@H](NC(=O)CCCCCCCCCCCCCCCCCCC(=O)O)C(=O)O)C(=O)O)C(=O)N[C@@H](CC(N)=O)C(=O)N[C@@H]([C@@H](C)O)C(=O)N[C@@H](C)C(=O)N[C@@H]([C@@H](C)O)C(=O)N1)[C@@H](C)O)C(=O)N[C@@H](C)C(=O)N[C@@H](CC(=O)O)C(=O)N[C@@H](Cc1ccccc1)C(=O)N[C@@H](CC(C)C)C(=O)N[C@@H](CCCNC(=N)N)C(=O)N[C@@H](Cc1c[nH]cn1)C(=O)N[C@@H](CO)C(=O)N[C@@H](CO)C(=O)N[C@@H](CC(N)=O)C(=O)N1CCC[C@H]1C(=O)N[C@@H](Cc1ccccc1)C(=O)NCC(=O)N[C@@H](C)C(=O)N1CCC[C@H]1C(=O)N[C@@H](CC(C)C)C(=O)N[C@@H](CO)C(=O)N[C@@H](CO)C(=O)N[C@H](C(=O)N[C@@H](CC(N)=O)C(=O)N[C@H](C(=O)NCC(=O)N[C@@H](CO)C(=O)N[C@@H](CC(=O)O)C(=O)N[C@H](C(=O)N[C@@H](Cc1ccc(O)cc1)C(N)=O)[C@@H](C)O)C(C)C)[C@@H](C)O, also called compound 3)
